Our source for the self-cleavage values is the RNAGym collection of RNA variant scans (doi:10.7554/elife.90254).

B1: LINE1-mini (parent)
chain: GGCAGAGCUCAACACAGCGUGGCAAAGUGGCUGUGGCUAGACUGCC

In this data set the parent is B1. Description: self-cleavage, relative activity (ratio to wild type); higher = more cleavage; in vitro, sequencing; the parent is a self-cleaving ribozyme.
Turning to C31U U43C, the self-cleavage is 0.06.

Take U34A U38C: the self-cleavage was found to be 0.2.

As for U34A U38A, the self-cleavage was 0.17.

For the variant U34A U38G, the self-cleavage stood at 0.06.

Turning to U32A C37U, the self-cleavage came to 0.08.

U32A C37A: the self-cleavage stood at 0.04.

As for U32A C37G, the self-cleavage stood at 0.08.

On to U34A G36U, for which the self-cleavage came to 0.04.

As for U34A G36C, the self-cleavage amounted to 0.03.

With U34A G36A, the self-cleavage was 0.09.

G33C C37G: the self-cleavage is 0.04.

G33C C37A: the self-cleavage came out at 0.03.

As for G33C C37U, the self-cleavage was 0.05.

With G33A C46G, the self-cleavage was 0.08.

As to G33A C46A, the self-cleavage was 0.1.

G33A C46U: the self-cleavage is 0.12.

Turning to G33C A39G, the self-cleavage is 0.03.

As to G33C A39U, the self-cleavage is 0.05.

In the case of G33C A39C, the self-cleavage worked out at 0.09.

For U32C G44U, the self-cleavage amounted to 0.07.

For the variant U32C G44A, the self-cleavage worked out at 0.07.

Take U32C G44C: the self-cleavage was determined as 0.09.

As for C31U G40U, the self-cleavage worked out at 0.04.

G33U C42G: the self-cleavage came out at 0.07.

On to G33U C42A, for which the self-cleavage is 0.13.

As for G33U C42U, the self-cleavage was determined as 0.09.

As to U34C G40U, the self-cleavage worked out at 0.1.

Consider U34C G40A, for which the self-cleavage came to 0.11.

Regarding U34C G40C, the self-cleavage amounted to 0.02.

U32C A41G: the self-cleavage is 0.07.

Take U32C A41U: the self-cleavage came out at 0.2.

With U32C A41C, the self-cleavage was 0.09.

Turning to U34C G44U, the self-cleavage worked out at 0.09.

Take U34C G44C: the self-cleavage was found to be 0.11.

For U34C G44A, the self-cleavage was determined as 0.12.

With U32G A39U, the self-cleavage is 0.1.

Regarding U32G A39C, the self-cleavage was found to be 0.09.

Turning to U32G A39G, the self-cleavage worked out at 0.8.

Take G33U U38C: the self-cleavage worked out at 0.08.

As to G33U U38G, the self-cleavage was 0.04.

On to G33U U38A, for which the self-cleavage turned out to be 0.08.

For the variant G33A G44C, the self-cleavage came out at 0.07.

As for G33A G44A, the self-cleavage came out at 0.1.

Take G33A G44U: the self-cleavage stood at 0.03.

For the variant G33A C42G, the self-cleavage is 0.06.

For the variant G33A C42U, the self-cleavage came out at 0.14.

Take G33A C42A: the self-cleavage came to 0.08.

As for G33U G40A, the self-cleavage was determined as 0.03.

For G33U G40C, the self-cleavage stood at 0.05.

Turning to G33U G40U, the self-cleavage worked out at 0.14.

With U32G C42A, the self-cleavage came out at 0.04.

As for U32G C42G, the self-cleavage was determined as 0.14.

With U32G C42U, the self-cleavage was 0.11.

For C31U U34G, the self-cleavage was 0.04.

Turning to C31U U34A, the self-cleavage came to 0.06.

With C31U U34C, the self-cleavage came to 0.12.

As for G33A A39U, the self-cleavage amounted to 0.06.

On to G33A A39G, for which the self-cleavage was 0.09.

In the case of G33A A39C, the self-cleavage came to 0.08.

On to U34A A39C, for which the self-cleavage was 0.12.

Consider U34A A39U, for which the self-cleavage came to 0.06.

On to U34A A39G, for which the self-cleavage worked out at 0.05.

Turning to G33U A41U, the self-cleavage was found to be 0.09.

G33U A41G: the self-cleavage was 0.07.

In the case of G33U A41C, the self-cleavage amounted to 0.06.

G33U C46A: the self-cleavage amounted to 0.07.

In the case of G33U C46U, the self-cleavage came to 0.07.

With G33U C46G, the self-cleavage is 0.07.

Take U32C C46A: the self-cleavage amounted to 0.16.

Turning to U32C C46G, the self-cleavage was determined as 0.1.

For the variant U32C C46U, the self-cleavage came out at 0.2.

For G33A, the self-cleavage was 0.11.

For G33U, the self-cleavage was 0.11.

Take G33C: the self-cleavage stood at 0.07.

Turning to G33A U34C, the self-cleavage turned out to be 0.09.

Take G33A U34A: the self-cleavage came to 0.09.

Regarding G33A U34G, the self-cleavage was determined as 0.04.

U32G A41U: the self-cleavage stood at 0.07.

In the case of U32G A41C, the self-cleavage was determined as 0.05.

On to U32G A41G, for which the self-cleavage is 0.08.

With U32G C37U, the self-cleavage is 0.07.

U32G C37G: the self-cleavage is 0.04.

As for U32G C37A, the self-cleavage was found to be 0.09.

U34C C45U: the self-cleavage amounted to 0.14.

U34C C45G: the self-cleavage is 0.11.

For the variant U34C C45A, the self-cleavage was determined as 0.05.

Consider C31U U32G, for which the self-cleavage came out at 0.06.

As for C31U U32A, the self-cleavage came to 0.09.

As for C31U U32C, the self-cleavage was determined as 0.08.

With U32G U38A, the self-cleavage was determined as 0.07.

Regarding U32G U38G, the self-cleavage was found to be 0.03.

In the case of U32G U38C, the self-cleavage is 0.12.

As for U34C A39C, the self-cleavage worked out at 0.09.

In the case of U34C A39G, the self-cleavage is 0.04.

In the case of U34C A39U, the self-cleavage was 0.07.

With U32C U43G, the self-cleavage was 0.13.

For U32C U43C, the self-cleavage was determined as 0.05.

Regarding U32C U43A, the self-cleavage worked out at 0.05.

In the case of U32C A39C, the self-cleavage was 0.08.

Turning to U32C A39U, the self-cleavage amounted to 0.15.

Regarding U32C A39G, the self-cleavage turned out to be 0.07.

As to U32G G33C, the self-cleavage was 0.09.

On to U32G G33U, for which the self-cleavage is 0.07.

U32G G33A: the self-cleavage was found to be 0.08.

As to U32G G40U, the self-cleavage came out at 0.11.

As for U32G G40C, the self-cleavage turned out to be 0.07.

As for U32G G40A, the self-cleavage was 0.05.

Consider U34A U43C, for which the self-cleavage is 0.04.

On to U34A U43G, for which the self-cleavage is 0.04.

Turning to U34A U43A, the self-cleavage was 0.06.

As for G33U G35A, the self-cleavage amounted to 0.08.

With G33U G35U, the self-cleavage was 0.11.

Take G33U G35C: the self-cleavage stood at 0.06.

As to G33U C45U, the self-cleavage turned out to be 0.08.

With G33U C45G, the self-cleavage amounted to 0.07.

Consider G33U C45A, for which the self-cleavage worked out at 0.05.

As for U32G G36A, the self-cleavage was 0.09.

Consider U32G G36C, for which the self-cleavage worked out at 0.05.

Take U32G G36U: the self-cleavage stood at 0.1.

In the case of G33U C37G, the self-cleavage is 0.05.

With G33U C37A, the self-cleavage was found to be 0.07.

With G33U C37U, the self-cleavage was found to be 0.06.

Regarding U32A G33C, the self-cleavage was 0.08.

With U32A G33A, the self-cleavage is 0.08.

In the case of U32A G33U, the self-cleavage was determined as 0.07.

With G33U G36C, the self-cleavage stood at 0.05.

For G33U G36U, the self-cleavage amounted to 0.05.

As for G33U G36A, the self-cleavage was 0.08.

Take U34C G36U: the self-cleavage was determined as 0.06.

Regarding U34C G36A, the self-cleavage worked out at 0.09.

U34C G36C: the self-cleavage turned out to be 0.08.

With U32A U34A, the self-cleavage came out at 0.05.

As for U32A U34C, the self-cleavage came out at 0.15.

Take U32A U34G: the self-cleavage amounted to 0.03.

In the case of G33U U34G, the self-cleavage stood at 0.05.

Turning to G33U U34C, the self-cleavage came out at 0.23.

Regarding G33U U34A, the self-cleavage was 0.08.

On to U32A G44U, for which the self-cleavage stood at 0.06.

Regarding U32A G44C, the self-cleavage came out at 0.07.

Consider U32A G44A, for which the self-cleavage is 0.23.

As to U32C C45A, the self-cleavage is 0.2.

As to U32C C45U, the self-cleavage turned out to be 0.12.

Take U32C C45G: the self-cleavage stood at 0.03.

For the variant G33C G35U, the self-cleavage came out at 0.04.

In the case of G33C G35C, the self-cleavage amounted to 0.04.

For G33C G35A, the self-cleavage is 0.04.

As to U32C, the self-cleavage is 0.2.

For U32G, the self-cleavage is 0.19.

Regarding U32A, the self-cleavage was 0.1.

Take U32C C37U: the self-cleavage stood at 0.07.

Take U32C C37A: the self-cleavage amounted to 0.15.

U32C C37G: the self-cleavage is 0.06.

Consider U32G G44C, for which the self-cleavage was 0.06.

As for U32G G44A, the self-cleavage was found to be 0.08.

Consider U32G G44U, for which the self-cleavage stood at 0.05.

On to G33U U43A, for which the self-cleavage worked out at 0.12.

Regarding G33U U43G, the self-cleavage came to 0.02.

Consider G33U U43C, for which the self-cleavage amounted to 0.08.

For G33A A41G, the self-cleavage stood at 0.11.

G33A A41U: the self-cleavage stood at 0.11.

G33A A41C: the self-cleavage came to 0.07.

Turning to G33A U38A, the self-cleavage was found to be 0.13.

Regarding G33A U38C, the self-cleavage worked out at 0.17.

With G33A U38G, the self-cleavage turned out to be 0.03.

Consider U32A A39G, for which the self-cleavage was 0.05.

With U32A A39U, the self-cleavage is 0.06.

Take U32A A39C: the self-cleavage came to 0.06.
